From patent US20260274944A1

Molecular target: RAGE (the receptor of interest on CHO cell lines; human or mouse not told)
Test: cell-based or functional assay

B1: VHH 5-LNP (protein)
VHH: EVQLVESGGGLVQPGGSLRLSCAASGTIFSLNPMGWYRQAPGKQLELVALISDSGTANYADFVRGRFTISRDTTKKTLYLQMNSLEPEDTAVYYCRSTFAAGNFYWGQGTQVTVSS
modifications: here or on the partner: BCN (bicyclo[6.1.0]nonyne) selectively conjugated to the VHH and clicked to DOPE-PEG2000-N3 on the surface of a lipid nanoparticle loaded with luciferase mRNA
- cellular delivery of FLuc mRNA (luminescence), fold against control LNP: 3 to 5 fold
